One substance from publication PMC8184657 can be followed below.

The target in this experiment is insulin (bovine insulin) (bovine). Put plainly: ITC. A general note: Isothermal titration calorimetry measures the heat released or taken up as one component is titrated into another.

On to IS1 (tetrapeptide VYYR), for which the Ka was 0.00346 M⁻¹ and the dH was -18.7 kcal/mol.
